# Experimental data taken from patent US8822187B1, “Polypeptides, nucleic acid molecules, and methods for synthesis of triterpenes” (University of Kentucky Research Foundation, priority 2011, dated 2014).
# Legend:
# [1] = substrate: CC(C)=CCC/C(C)=C/CC/C(C)=C/CO[P@@](=O)(O)OP(=O)(O)O; test: purified protein, by the assay type; conditions: other: purified SSL-1, 3H-FPP, 0.1% triton X-100, 15 min at 37° C., PSPP as sole reaction product
# [2] = Purified SSL-1 mixed with B. braunii algal cell-free lysate, incorporation of radiolabeled FPP into botryococcene; type: biochemical, Botryococcus braunii; conditions: purified SSL-1 mixed with algal cell-free lysate
# Procedure: FIG. 4 depicts the dependence of the squalene synthase-like-1 enzyme on algal lysate for botryococcene biosynthesis. […] The SSL-1 gene containing a 5′ terminal sequence coding for a hexa-histidine tag was over-expressed in E. coli and the corresponding enzyme purified by cobalt affinity chromatography according to the manufacturer (Sigma). B. braunii lysate was prepared from cells collected at the indicated stages of culture development according to the procedure described by Okada, S. et al. (Arch Biochem Biophys 422: 110-118) and 10 μg of lysate protein was used per assay. Assays were incubated at 37° C. for 1 h, then the reaction products extracted with hexane. Aliquots of the hexane extracts was separated by silica TLC and the radioactivity migrating to zones corresponding to authentic standards of botryococcene and squalene determined by scintillation counting. Data represents mean±s.e.m.
# Typical enzyme assays were initiated by mixing aliquots of purified enzyme with 50 mM Mops, pH 7.3, 20 mM MgCl2, 2.5 mM 2-mercaptoethanol, 10 μM [1-^3H]-FPP (˜2×10^5 dpm total), and 2 mM NADPH in total reaction volume of 50 μl. Reactions were incubated at 37° C. for 1 h and then extracted with 100 μl n-hexane or 100 ul MTBE. […] The standards were visualized with iodine vapors and TLC zones corresponding to the standards were scrapped and analyzed by scintillation spectrometry. […]
# [3] = Michaelis-Menten enzyme kinetics of the SSL-1 reaction (3H-FPP to PSPP); type: biochemical; conditions: after acid phosphatase dephosphorylation
# Procedure: FIG. 5 depicts Michaelis-Menten enzyme kinetics of the SSL-1 reaction. Enzyme assays (50 μl) were set up as described in the methods section with purified SSL-1 (0.2-1.0 μg), 0.1% triton X-100, ±2 mM NADPH, and the indicated concentration of ^3H-FPP. Assays were incubated for 15 min at 37° C. and stopped by addition of 50 μl 0.5 M EDTA. The reactions were then extracted 3× with 200 μl water saturated 1-butanol and pooled in a 4 ml glass screw cap vial. […] The standards were visualized with iodine vapors and the zones corresponding to FOH (rf=0.65) and PSOH (rf=0.45) were scraped and analyzed by scintillation spectroscopy. […] The data was analyzed using the SigmaPlot Enzyme Kinetics 1.3 software. […]
# Typical enzyme assays were initiated by mixing aliquots of purified enzyme with 50 mM Mops, pH 7.3, 20 mM MgCl2, 2.5 mM 2-mercaptoethanol, 10 μM [1-^3H]-FPP (˜2×10^5 dpm total), and 2 mM NADPH in total reaction volume of 50 μl. […] The standards were visualized with iodine vapors and TLC zones corresponding to the standards were scrapped and analyzed by scintillation spectrometry. […] Extracts were resuspended in 50 μl hexane and an aliquot analyzed by GC-MS with a Varian CP-3800 GC coupled to a Varian Saturn 2200 MS/MS (Varian Medical Systems) using a Supelco SLB-5 ms fused silica capillary column (30 m×0.25 mm×0.25 μM film thickness, Supelco). […]
# [4] = NADPH oxidation versus squalene and bisfarnesyl ether recovery; type: biochemical
# Procedure: With reference to Table 2, Assays were performed as described above in the Methods except that an alternative reaction buffer (50 mM Tris pH 8.0, 250 mM NaCl, 20 mM MgCl2) was used to minimize spontaneous NADPH oxidation and prevent protein precipitation at high concentrations. […] An extinction coefficient of 6220/M/cm was used to calculate the amount of NADPH oxidized. No NADPH oxidation could be measured in complete reaction buffer without protein over a 1 h incubation. […] This background NADPH oxidation was subtracted from the experimental determined rates. The experimental enzyme assays contained either purified TSS (0.75 or 1.5 μg) or SSL-2 (8 or 16 μg) and 40 μM ^3H-FPP. Absorbance at […] was recorded every 2.5 min. for 15 minutes, after which the reaction was stopped by adding an equal volume of 0.5 M EDTA. The reaction mixture was collected, extracted with 200 μl of hexane and aliquots were separated by silica TLC along with standards of squalene and bisfarnesyl ether using hexane:MTBE (25:1) as the developing solvent. The standards were subsequently visualized with iodine vapor, and corresponding zones analyzed by scintillation spectroscopy. Data represents mean±S.E.M of duplicate samples.
# [5] = Substrate specificity of SSL-2 (bisfarnesyl ether formation); type: biochemical; conditions: 37° C., 1 h
# Procedure: The radioactivity incorporated in the zones corresponding to bisfarnesyl ether were determined by scintillation counting. Data represents mean±S.E.M.
# [6] = 100 μM NADPH, 40 μM 3H-FPP, 15 minutes, 23° C.
Molecule,Km [1] [µM],kcat [1] [s⁻¹],enhancement of NAD(P)H-dependent botryococcene biosynthesis [2],input radioactivity recovered as FOH and PSOH [3],Bisfarnesyl ether formed [4],NADPH oxidation not associated with squalene biosynthesis [4] [pmol],NADPH oxidized [4] [pmol],squalene biosynthesis [4] [pmol],bisfarnesyl ether formed per mole equivalent of NADPH oxidation ([4]; 21 pmoles versus 2.4 pmoles),"pmoles bisfarnesyl ether recovered per μg protein [4, 6] [pmoles per μg protein]","pmoles squalene recovered per μg protein [4, 6] [pmoles per μg protein]","pmoles NADPH oxidized per μg protein ([4]; 100 μM NADPH, 40 μM FPP, 15 minutes, 23° C., background subtracted) [pmoles per μg protein]",NADPH oxidation rate in reaction buffer without FPP (background) ([4]; without FPP) [pmoles/μg protein/h],Bisfarnesyl ether formed ([5]; substrate 10 μM 1-3H-FPP),Bisfarnesyl ether formed ([5]; substrate 10 μM 1-3H-farnesol) [pmoles /h · μg protein],Bisfarnesyl ether formed ([5]; substrate 10 μM FPP + 10 μM 1-3H-farnesol)
"Botryococcus braunii race B squalene synthase-like 1 (SSL-1), wild type, hexa-histidine tagged, SEQ ID NO: 2 (Botryococcus braunii) (protein) MTMHQDHGVMKDLVKHPNEFPYLLQLAATTYGSPAAPIPKEPDRAFCYNTLHTVSKGFPRFVMRLPQELQDPICIFYLLLRALDTVEDDMNLKSETKISLLRVFHEHCSDRNWSMKSDYGIYADLMERFPLVVSVLEKLPPATQQTFRENVKYMGNGMADFIDKQILTVDEYDLYCHYVAGSCGIAVTKVIVQFNLATPEADSYDFSNSLGLLLQKANIITDYNEDINEEPRPRMFWPQEIWGKYAEKLADFNEPENIDTAVKCLNHMVTDAMRHIEPSLKGMVYFTDKTVFRALALLLVTAFGHLSTLYNNPNVFKEKVRQRKGRIARLVMSSRNVPGLFRTCLKLANNFESRCKQETANDPTVAMTIKRLQSIQATCRDGLAKYDTPSGLKSFCAAPTPTK",12.8,0.027,up to 10 fold,greater than 95%,–,–,–,–,–,–,–,–,–,–,–,–
SSL-2: Botryococcus braunii race B squalene synthase-like 2 enzyme; bacterial form is truncated SSL-2-tr2 (protein) MVKLVEVLQHPDEIVPILQMLHKTYRAKRSYKDPGLAFCYGMLQRVSRSFSVVIQQLPDELRHPICVFYLILRALDTVEDDMNLPNEVKIPLLRTFHEHLFDRSWKLKCGYGPYVDLMENYPLVTDVFLTLSPGAQEVIRDSTRRMGNGMADFIGKDEVHSVAEYDLYCHYVAGLVGSAVAKIFVDSGLEKENLVAEVDLANNMGQFLQKTNVIRDYLEDINEEPAPRMFWPREIWGKYAQELADFKDPANEKAAVQCLNHMVTDALRHCEIGLNVIPLLQNIGILRSCLIPEVMGLRTLTLCYNNPQVFRGVVKMRRGETAKLFMSIYDKRSFYQTYLRLANELEAKCKGEASGDPMVATTLKHVHGIQKSCKAALSSKELLAKSGSALTDDPAIRLLLLVGVVAYFAYAFNLGDVRGEHGVRALGSILDLSQKGLAVASVALLLLVLLARSRLPLLTSASSKQ,–,–,–,–,greater than 21 pmoles,2.4,4.6,2.2,about 10 times,21.7 ± 1.8,2.2 ± 0.4,4.6 ± 2.6,22,13.5 +/− 3.3 pmoles /h · μg protein,0,16.3 +/− 0.4 pmoles /h · μg protein
